From US20080199426

Test system: Hirudin (Calbiochem 377853)

## thrombin activated from 10% human plasma on HUVEC monolayers
  cleavage of the chromogenic thrombin substrate (absorbance at 405 nm): completely blocked the cleavage of the chromogenic thrombin substrate
